Source: the DeepSol protein solubility set

test: soluble on expression in E. coli; label from the status in PepcDB or PDB records

Row | Sequence | soluble on expression in E. coli
1 | MSLRFVFDIDGTLCFDGRLIDQTIIDTLLQLQHDGHELIFASARPIRDLLPVLPSVFHQHTLIGANGAMISQQSKISVIKPIHTDTYHHILKIIQKYELDYIIDDDWNYAAQLDAENAIFERLDPHKLASCIDVANIDTPIKIILLNIDPAQITTILDELNKYHQELEMIHHSNEYNIDITAQNINKYTALQYIFDADVKYIAFGNDHNDIFMLQHASSGYIIGPSEAYTHAILKLDKIKHINNNTQAICKVLKSYKEGHHHHHH | soluble
2 | MSLRGGAQALECYSCVQKADDGCSPNKMKTVKCAPGVDVCTEAVGAVETIHGQFSMAVRGCGSGLPGKNDRGLDLHGLLAFIQLQQCAQDRCNAKLNLTSRALDPAGNESAYPPNGVECYSCVGLSREACQGTSPPVVSCYNASDHVYKGCFDGNVTLTAANVTVSLPVRGCVQDEFCTRDGVTGPGFTMSGSCCQGSRCNSDLRNKTYFSPREGHHHHHH | not soluble
3 | MSLRGGEDSPVDGARQAAANVFGPIENGVSSAVDPVGNAVSAVRDSGDRHDRLARLETENAALKAKSGSDERGRSRLKQFDKMLGLAGAGQYGIKGAQVIAIGAAQGFSWTITIDAGANDGVKRDMTVLNGDGLVGRVTTVGPNTATVLLANDPDFTVGTRMESGDELGFASGQGSRPLRVELLNGKADVKKGDRLVTFGSQADKPFVPGVPVGTITRVDPNGGDLTRILDVTPFVSFTKLDIVGVVVQAPSKDPRDTVLPEKKQPKPTPTVTVTVTPGADPEGQTRNDEAGQDEAAGQNDATGQNDQTEQQNEQPEPEGHHHHHH | soluble
4 | MSLRIIKAGLIGCGNISSIYFENVHRFKHLTIVACADLHLERARAQAEKYRIPKACTVAELLEDPEIELVINLTIPQVHAKVCIQALEAGKHVYTEKPLTITLEEGQKLLEKAKETGLLVGCAPDTFLGAGIQTSIQVIERGEIGTPVGASAFMIGRGHEHWHPDPAFYYDVGGGPMYDMGPYYLTALTALLGPMARVSGSARITYPERTILSEPKKGTKIKVSTPTHISGVIDFANGAIASITTSFDAFGGSVLPPIEVYGSEGTLLVPDPNTFDGPVQLRKRDEREFVEVPLTYHYTENNRGIGVADMAMSLLTGSDYRASGTMGFHVLEAMHGFHMSSTSGHHYQMKSTCRKPEPLPVDFRFSYVETEGHHHHHH | soluble
5 | MSLRKDLSEKVLIADGAMGTLLYSYGVDRSFEELNLSHPEDIVAIHKAYIGAGADIIQTNTYGANYIKLARYGLEDEVKRINQAAIRLAKEAARGTGTYIFGTIGGINGAVDARLPAAPLEEIKRSFREQLYCFLLDGVDAILLETYYDLDELKTVLKILRETTDLPVVANVSMHEPGILQNGKKLPDALEELIALGADVVGINCRLGPYHMARALETVPLYDNAYLAVYPNASLPEMQEGKVIYQSDTDYFEHYGEVFRQEGARIIGGCCGTTPDHIRALRKGLETTKPILEKEVRPILELVPEEVEDVDSGERLLDKVKERLTILVELDPPRTFDTTKFFEGAQALDEAGVDAITISDNSLATPRISNMALASILKHEYGIKPLIHLTTRDHNLVGMHSHVMGFHKLGLHDVLAITGDPTKVGDFPGASSVFDLRSVELVQLIKKFNDGISYTGKSLKEKARFHVGAAFNPNVLNLEKAVRLIERKVEYGADYIITQPIYDVNKAILLKEALQKANIDVPLFIGVMPLLSSRNAEFLHNEVPGIRLTDDVRERMREAEEHGHANEEGMAIARELVDAICEHFQGIYIITPFLRYDLSIELAKYAQNKQQVQIGSKEGHHHHHH | soluble
6 | MSLRKTQTYKSLPYNPALRDRAKALRKAGILHEALLWFELKSNKLNGLDFDRQKIIGNYIVDFYCAERSVVIEVDGSSHDSKQIEDRERDAYLNGLGLTVIRVLAKDVLRNLEGVVEFLKDHPALTGTPPEEGNKTALTGTPPEEGNKTALTGTPPEEGNKTALTGTPPEEGNKTALTGTPPEEGNKTTLTEAREEGHHHHHH | soluble
7 | MSLRLKTILLTTMATGSFLCEPVAAMCIEPPATPDMGWFLKKKKKSNPQDSIKVKNEYEKLTGSDSVVRRGMFNVYQKKNDYYFEIPSTLLERDMLVVNKLQRVPAELNEAGVNRGTNYENQMIRFELDKSANKLLIRQSRPLPISPSEDAISQSVKDNYISPLIAGFKVEAYNNDSTSILIKVNDIYDGTETSINNVFTNINLGTSAIKNLSRILSIKSFDNNVVATSELTTRVTEGTTTIYVTVEVSSSILLLPEVPMTGRLDNPRVGYFTNPLTNFSDGQQRVNKKQFITRWRLEPRPEDRAAYLRGELVEPRKPIVFYIENSTPYRWRKYIKQGIEDWQVAFERAGFKNAIIAKDITEDMEVDMDDVNYSVLTYAASTKANAMGPSILDPRSGEILEADIMWWHNVLSMLQEWITVQTGVVRPEARGVALPDSLMGDAMRFVACHEVGHSLGLRHNMMGSWAFPTDSLRSKTFTDRMNSTSSSIMDYARFNYVAQPGDGIKALSPHIGPYDMFAIEYGYRWYGKQTPEEEKELLQDFLAKHTDRLYKYSEAQDEGHHHHHH | soluble
8 | MSLRPRQLLLATDLGARCDRALDRAIQLSRAWHAALTVVHAVEQVELIDDEPSWRQPPDAALAIQAELEDELGEAGLSSIDARVLKGKPSEVVLKVAEEVEAELILTGVKRDGALEKALLGDTVTELARQSRVPVLVVKKRLRKPYGRIVVATDLSELSRAALARAVDLFGPDNLVVFHASFAHFASRMDDRVAYESELRSDAIQNCRDFIRDVAGEEAAATMEVMVEYGEPDLLLEKYVQDKQVDLVVVSTRGRSGLLGVLLGSVAMRILDSVACDVLIVRSEGHHHHHH | soluble
9 | MSLRPSAPELDHAKRQRLARLPKPVPLGVCTLREQRWVVLDLETSGLNPNRDQVLSIGAVAIEDGAIDFAQQFERTLHRPLQKTNASVLIHGLGPSALAAGCDPAEALLDLLDFIGNSPVLAFHAPFDQRMLARALKETLGHRLQSMFLDVAELAPMLNPDTVLREAGLDDWVARFGLQVEERHHASADAQVTAELALILFSQARRQQLDSPLQLEQRLRGWRRRKMQSHGEGHHHHHH | soluble
10 | MSLRRALIIDDEEAVLKIITHFIEMKDMPIKIVGKATSGDEAVDKIIGLEPDIVFIDIQMPIYNGLEVIEKTSHLSKKINFVVITAFNYFEYAQKALRLNVKDILLKPLDMKEFTKSVEKIIGYQYTNNDLLNEILEYINLNYSNDLKLNDCARLFLTNPSNISRIFKSNLNTTFISYLNHIRIEKSIELLENTTKSINEIAEIVGYNSLNNFYKNFKIEKGMTPKVYKLNTEGHHHHHH | not soluble
11 | MSLRSRDITLTGTYLPNTPVTLVVDGVAQVQGMTDSAGRFRLTGTLEPGRNRVYVMGEGPLASREYAVRYLPPYTDMAGHWAEAVVDALHERGVVSLYPLPRFEPEAQVTRMEFAVMVARALRLPAAEEQAPFTDVAVMPQWALLEVAAAVKAGIIKGMPDGSFAPDRLVTRAEMAAMLTRALAWAGLEVKPEAPEFADQAEIPDWAVEPVAAAVRHGLIKGYPDGTFRPGSPTTRAEAATMVHRLLQTVIGLNPEGHHHHHH | soluble
12 | MSLRTIPLLCFNDVYRVNQKYNPQPGAPEDNSPDRTITVSQFAELLLSERSKWADRQSEDQDDQEGPSKEGLVLFAGDVFNPSVESSVTRGSHMVPIMNALKVDYACVGNHDFDFGFPHLTKLVESTSFPWLLSNIVDTNTGRQPEPLKRFIVTERCGVKIGLIGLVEKDWIATIPSWPHNFRYRSMKDTALELSRELRDPNGEHQVDIIIALTHCRVPNDIRLAIELGAVADKPGVENEHGIDLIVGGHDHIYYIGKGATSWEGYAGRKDVPGTTEDHGVRLIKSGTDFRDLTSANLTVTPTPLGSIRRQLITSLTGKHLYVLPSSPSSPPFEELVKSLLSSVSEALTKPVCFTLTPFDARSEVVRTQESGLGNWIADVLMHAYAESIVQAKGKEGGLGEEFEGDADAAILCGGTLRGDSQYGPGKISLGDILEILPFEDPVVCIELDGKGIWNALESALSKWPAQEGRFPIVSGLAVKWDHTRPPGQRILSIHQIAQPKKDDDDWEDPADMVDFKEQEDGTTVVVKQKKLQLGEEVKNEEGGRMYKVITRDYMAQGYDGFEALKNRNFIVDDENGQIMSSILRSFLLGSSYIFRHKQLEEAAHSHLSRRTSEGHHHHHH | soluble
